According to patent WO2014065403A1 (dated 2014):

Tests used:
[1] = molecular target: T1, partial length CD40 D2 (expressed from the 62nd amino acid of CD40) (human, UniProt P25942 62-277); assay: FACS at 1 ug/mL on 293T cells transiently expressing partial length CD40
T1 construct: not shown: VSV-G tag added at the C-terminus

[2] = molecular target: T2, partial length CD40 from CD40 amino acid residue 78 onward (human, UniProt P25942 78-277); assay: FACS on 293T cells transiently expressing partial length CD40
T2 construct: also called D2B1 (by its position in the series D1, D1B2, D2, D2B1, D3, D4); not shown: VSV-G tag added at the C-terminus

[3] = molecular target: T3, partial length CD40 D3 (expressed from the 105th amino acid of CD40) (human, UniProt P25942 105-277); assay: FACS at 1 ug/mL on 293T cells transiently expressing partial length CD40
T3 construct: not shown: VSV-G tag added at the C-terminus

[4] = molecular target: T4, partial length CD40 from CD40 amino acid residue 146 onward (human, UniProt P25942 146-277); assay: FACS on 293T cells transiently expressing partial length CD40
T4 construct: also called D4 (by its position in the series D1, D1B2, D2, D2B1, D3, D4); not shown: VSV-G tag added at the C-terminus

mouse CD40 = molecular target: T5, mouse CD40 (mouse, UniProt P27512 20-289); assay: FACS on CHO cells expressing mouse CD40
T5 construct: Stably expressed on CHO cells (pCXN3 vector)
T5 sequence: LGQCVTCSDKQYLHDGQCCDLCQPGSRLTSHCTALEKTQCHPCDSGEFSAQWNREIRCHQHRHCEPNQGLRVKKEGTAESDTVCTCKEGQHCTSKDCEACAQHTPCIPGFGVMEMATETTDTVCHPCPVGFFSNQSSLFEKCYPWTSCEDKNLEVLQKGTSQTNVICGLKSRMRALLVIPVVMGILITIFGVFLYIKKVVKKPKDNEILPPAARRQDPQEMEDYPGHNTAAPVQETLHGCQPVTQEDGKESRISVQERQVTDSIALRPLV

cynomolgus monkey CD40 = molecular target: T6, cynomolgus monkey CD40 (cynomolgus monkey, UniProt P25942 21-277 (human entry)); assay: FACS on CHO cells expressing cynomolgus monkey CD40
T6 construct: Stably expressed on CHO cells (pCXN3 vector); also called cynomolgus CD40
T6 chain: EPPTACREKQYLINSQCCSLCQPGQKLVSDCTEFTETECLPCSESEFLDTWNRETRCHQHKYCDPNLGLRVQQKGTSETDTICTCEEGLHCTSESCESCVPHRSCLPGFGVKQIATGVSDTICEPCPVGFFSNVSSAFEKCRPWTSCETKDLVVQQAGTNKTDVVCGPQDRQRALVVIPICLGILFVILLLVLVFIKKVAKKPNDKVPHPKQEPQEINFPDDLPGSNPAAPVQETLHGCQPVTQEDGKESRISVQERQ

B1: antibody of SEQ ID NOs: 28 and 53 (antibody, V domains shown)
VH: EVQLQQSGAELVKPGASVKLSCTGSGFNIKDTYMHWVKQRPEQGLEWIGRIDPANGNTKFDPKFQGKATITADTSTNTAYLQVSSLTSEDTAVYYCVRYGYDGYFDYWGQGTTLTVSS
VL: QIVLTQSPAIMSASPGEKVTMTCSVSSSISYMYWYQQKPGTSPKRWIYDTSKLASGVPARFSGSGSGTSYSLTISSMEAEDAATYYCHQRSSYPLTFGAGTKLELK
notes: clone name not tied; The text speaks of the mature part of these entries
B1: binds [1]; no binding (tested: 1 μg/mL) [2].

B2: antibody of SEQ ID NOs: 8 and 33 (antibody, V domains shown)
VH: EVQLQQSGPELVKPGASVKMSCKASGYTFTNYVMHWVKQKPGQGLEWIGYVNPYNDDTNYNERFKGKATLTSDKSSSTAYMELSSLTSEDSAVYYCARELTGTYWGQGTLVTVSA
VL: DIVMTQAAPSVPVTPGESVSISCRSSKSLLHSNGNTYLYWFLQRPGQSPQLLISRISNLASGVPDRFSGSGSGTAFTLRISRVEAEDVGVYYCMQHVEYPFTFGSGTKLEIK
notes: as for B1
B2: binds [3]; no binding (tested: 1 μg/mL) [4].

B3: antibody of SEQ ID NOs: 16 and 41 (antibody, V domains shown)
VH: EVQLQQSGPELVKPGASVKMSCKASGYTFINYVIHWVKQKPGQGLEWIGYINPYNDDSNYNEKFKGKATLTSDKSSSTAYMELRSLTSEDSAIYYCARDLIGSYWGQGTTLTVSS
VL: DIVMTQAAPSVIVTPGESVSISCRSSKSLLHSNGNTYFYWFLQRPGQSPQLLISRISNLASGVPDRFSGSGSGTAFTLRISRVEAEDVGIYYCMQHLEYPFTFGAGTKVELK
notes: as for B1
B3: binds [3]; no binding (tested: 1 μg/mL) [4].

B4: antibody of SEQ ID NOs: 15 and 40 (antibody, V domains shown)
VH: QVQLQQSGAELARPGASLKMSCKASGYTFTSYTIHWIKQRPGQGLEWIGYINPSSGYTNDNQKFKDKATLTADKSSTTAYMQLSSLTSEDSAVYYCARLGRPFDYWGQGTTLTVSS
VL: EIVLTQSPALMAASPGEKVTITCSVSSSISSSNLHWYQQKSETSPKPWIYGTSNLASGVPVRFSGSGSGTSYSLTISSMEAEDAATYYCQQWSTYPLTFGSGTKLEIK
notes: as for B1
B4: binds [3]; no binding (tested: 1 μg/mL) [4].

B5: mouse antibody PPAT-071-04 (antibody, V domains shown)
VH: EVQLQQSGPELVKPGASMKISCKASGYSFADYTMNWVKQSHGKKLEWIGLINPYNGGTSYNQKFKDKATLTVDKSSSTAYMELLSLTTEDSAVYYCAEGVNNFADWGQGTTLTVSG
VL: DIVLTQSPTSLAVFLGQRATISCRASKSVSTSGYSYMHWYQQKPGQSPKPLIYLASNLESGVPARFSGSGSGTDFTLNIHPVEEEDAATYYCQHSRELPRTFGGGTKLEIK
notes: Mouse monoclonal IgG from ascites; also called hybridoma NITE BP-01435
B5: binds [3]; no binding (tested: 1 μg/mL) [4]; no binding (mouse CD40). B5: binds (cynomolgus monkey CD40).

B6: antibody of SEQ ID NOs: 12 and 37 (antibody, V domains shown)
VH: EVQLQHSGAELVKPGSSVKLSCTASDFNIKDAYMHWVKQRPEQGLEWIGRIDPANGKTKYDPKFQDKATITADTSSNTAYLQLNSLTSEDTAVYYCPRNYYGSRYGYFDVWGAGTTVTVSS
VL: QIVLTQSPAILSASPGEKVTITCSASSSVDYMFWFQQKPGTSPKLWIYTTSNLASGVPTRFSGSGSGTSYSLTISRMEAEDAATYYCHQRSSYPLTFGAGTKLELK
notes: as for B1
B6: binds [1]; no binding (tested: 1 μg/mL) [2].

B7: antibody of SEQ ID NOs: 13 and 38 (antibody, V domains shown)
VH: EVQLQQSGAELVKPGASVKLSCTASGFNIKDSYIHWVKQRPEQGLEWIGRIDPANGNTKYDPKFQGKATITSDTSSSTAYLQLTSLTSEDTAVYYCPRNYYGSTYGYFDVWGAGTTVTVSS
VL: QIVLTQSPAIMSASPGEKVTITCSASSSVSNMHWFQQKAGTSPKLWIYRTSNLASGVPARFSGSGSGTSYSLTISRMEAEDAATYYCQQGSSYPLTFGAGTKLELK
notes: as for B1
B7: binds [1]; no binding (tested: 1 μg/mL) [2].
